Measurements published in US20140274782A1 (Stanford University, published 2014).

Assays:
Experiment in all cases: ProtoArray, GST-treated control array;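 also: human protein microarray (about 9500 recombinant proteins) incubated overnight with GST alone plus SAM cofactor as the negative control for G9a SET domain methylation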
[1] = target: T1, CNTD1-Cyclin N-terminal domain-containing protein 1 (human, UniProt Q8N815 1-330)
T1 sequence: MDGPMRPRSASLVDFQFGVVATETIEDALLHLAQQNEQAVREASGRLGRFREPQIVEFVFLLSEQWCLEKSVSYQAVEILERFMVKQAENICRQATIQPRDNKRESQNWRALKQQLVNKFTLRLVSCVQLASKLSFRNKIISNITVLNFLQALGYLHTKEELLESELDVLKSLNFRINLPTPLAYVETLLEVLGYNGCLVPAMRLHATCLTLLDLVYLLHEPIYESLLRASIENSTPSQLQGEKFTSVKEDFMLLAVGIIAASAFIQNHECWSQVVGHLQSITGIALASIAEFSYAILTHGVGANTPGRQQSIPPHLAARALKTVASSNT

[2] = target: T2, PTCD2-pentatricopeptide repeat domain 2 (PTCD2) (human, UniProt Q8WV60 1-388, limits assumed)
T2 sequence (looked up): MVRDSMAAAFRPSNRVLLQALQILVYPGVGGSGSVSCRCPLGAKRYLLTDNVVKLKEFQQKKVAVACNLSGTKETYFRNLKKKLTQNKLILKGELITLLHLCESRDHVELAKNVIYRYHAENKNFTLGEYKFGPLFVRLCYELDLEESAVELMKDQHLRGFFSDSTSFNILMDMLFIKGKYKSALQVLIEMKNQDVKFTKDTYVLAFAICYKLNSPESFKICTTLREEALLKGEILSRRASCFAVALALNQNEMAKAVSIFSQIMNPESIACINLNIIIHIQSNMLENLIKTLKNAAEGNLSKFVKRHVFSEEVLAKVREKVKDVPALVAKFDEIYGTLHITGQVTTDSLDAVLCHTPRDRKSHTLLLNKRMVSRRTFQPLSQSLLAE

[3] = target: T3, GPX1-glutathione peroxidase 1 (GPX1) (human, UniProt P07203 1-203, limits assumed)
T3 sequence (looked up): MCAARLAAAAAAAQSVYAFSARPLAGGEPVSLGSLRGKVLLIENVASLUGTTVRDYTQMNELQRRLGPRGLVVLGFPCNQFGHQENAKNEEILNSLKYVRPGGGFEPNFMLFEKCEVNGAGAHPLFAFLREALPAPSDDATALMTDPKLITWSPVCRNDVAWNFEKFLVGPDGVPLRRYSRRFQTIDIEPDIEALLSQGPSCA

[4] = target: HS3ST1-heparan sulfate (glucosamine) 3-O-sulfotransferase 1 (HS3ST1) (human, UniProt O14792 21-307, limits assumed)
[5] = target: SAR1B-SAR1 gene homolog B (S. cerevisiae) (SAR1B), transcript variant 2 (human, UniProt Q9Y6B6 1-198)
[6] = target: T4, BLCAP-bladder cancer associated protein (BLCAP) (human, UniProt P62952 1-87)
T4 sequence (looked up): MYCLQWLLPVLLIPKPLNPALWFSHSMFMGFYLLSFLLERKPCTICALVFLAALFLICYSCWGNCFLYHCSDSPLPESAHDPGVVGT

[7] = target: T5, SCGB1A1-secretoglobin, family 1A, member 1 (uteroglobin) (SCGB1A1) (human, UniProt P11684 22-91, limits assumed)
T5 sequence (looked up): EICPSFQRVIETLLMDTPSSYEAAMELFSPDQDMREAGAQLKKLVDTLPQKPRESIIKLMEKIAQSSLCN

[8] = target: T6, GGPS1-Geranylgeranyl pyrophosphate synthetase (human, UniProt O95749 1-300)
T6 sequence (looked up): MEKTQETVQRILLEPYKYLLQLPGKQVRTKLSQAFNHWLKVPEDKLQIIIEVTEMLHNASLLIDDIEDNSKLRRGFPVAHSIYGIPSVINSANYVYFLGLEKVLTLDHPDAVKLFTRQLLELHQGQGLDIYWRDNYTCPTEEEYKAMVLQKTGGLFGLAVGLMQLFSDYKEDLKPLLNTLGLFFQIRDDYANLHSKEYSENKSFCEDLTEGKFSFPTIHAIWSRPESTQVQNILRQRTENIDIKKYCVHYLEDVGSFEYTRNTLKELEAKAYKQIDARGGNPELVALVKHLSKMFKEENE

[9] = target: FTL-ferritin, light polypeptide (FTL) (human, UniProt P02792 1-175)
[10] = target: T7, LYPLAL1-lysophospholipase-like 1 (LYPLAL1) (human, UniProt Q5VWZ2 1-237)
T7 sequence (looked up): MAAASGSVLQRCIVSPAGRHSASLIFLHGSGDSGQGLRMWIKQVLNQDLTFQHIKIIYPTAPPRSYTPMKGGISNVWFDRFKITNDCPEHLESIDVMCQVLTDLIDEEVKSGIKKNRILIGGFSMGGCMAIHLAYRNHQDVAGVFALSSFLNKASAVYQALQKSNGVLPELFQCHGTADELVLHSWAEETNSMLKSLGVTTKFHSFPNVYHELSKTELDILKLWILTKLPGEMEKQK

[11] = target: T8, C11orf73-chromosome 11 open reading frame 73 (C11orf73) (human, UniProt Q53FT3 1-197)
T8 sequence (looked up): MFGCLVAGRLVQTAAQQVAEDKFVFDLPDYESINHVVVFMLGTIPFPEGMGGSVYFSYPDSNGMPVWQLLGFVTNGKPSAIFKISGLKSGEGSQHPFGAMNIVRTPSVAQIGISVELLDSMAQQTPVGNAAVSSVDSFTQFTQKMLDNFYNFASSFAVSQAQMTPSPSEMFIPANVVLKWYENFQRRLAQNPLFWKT

[12] = target: N/A-cDNA clone IMAGE:4623222, partial cds (human)
[13] = target: T9, LTC4S-Leukotriene C4 synthase (human, UniProt Q16873 1-150)
T9 sequence (looked up): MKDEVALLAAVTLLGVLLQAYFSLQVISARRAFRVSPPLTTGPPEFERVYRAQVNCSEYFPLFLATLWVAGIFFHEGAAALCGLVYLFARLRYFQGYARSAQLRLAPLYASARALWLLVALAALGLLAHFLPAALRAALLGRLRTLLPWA

Sequence of HS3ST1-heparan sulfate (glucosamine) 3-O-sulfotransferase 1 (HS3ST1) (O14792 21-307 limits assumed): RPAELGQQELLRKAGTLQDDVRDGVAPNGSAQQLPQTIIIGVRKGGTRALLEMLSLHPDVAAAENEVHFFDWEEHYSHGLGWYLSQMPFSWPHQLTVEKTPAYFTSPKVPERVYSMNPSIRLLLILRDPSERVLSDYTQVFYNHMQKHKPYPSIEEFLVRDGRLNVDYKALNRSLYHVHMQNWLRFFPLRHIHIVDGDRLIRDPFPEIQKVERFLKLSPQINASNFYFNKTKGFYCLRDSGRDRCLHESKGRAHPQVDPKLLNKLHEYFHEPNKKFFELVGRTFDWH
Sequence of SAR1B-SAR1 gene homolog B (S. cerevisiae) (SAR1B), transcript variant 2 (Q9Y6B6 whole entry, change not shown): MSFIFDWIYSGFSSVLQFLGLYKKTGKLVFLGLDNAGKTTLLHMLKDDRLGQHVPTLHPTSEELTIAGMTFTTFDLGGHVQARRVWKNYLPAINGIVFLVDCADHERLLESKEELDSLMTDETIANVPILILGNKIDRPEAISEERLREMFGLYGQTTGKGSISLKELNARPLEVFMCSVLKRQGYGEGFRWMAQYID
Sequence of FTL-ferritin, light polypeptide (FTL) (P02792 whole entry): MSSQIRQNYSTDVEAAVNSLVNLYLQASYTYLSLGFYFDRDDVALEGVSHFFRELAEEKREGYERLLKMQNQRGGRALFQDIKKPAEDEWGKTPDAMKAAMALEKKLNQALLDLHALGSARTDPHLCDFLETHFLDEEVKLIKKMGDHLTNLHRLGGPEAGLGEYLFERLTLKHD

- GST Average SNR [1]: 0.567
- GST Average SNR [2]: 0.679
- GST Average SNR [3]: 1.22
- GST Average SNR [4]: 0.092
- GST Average SNR [5]: 0.558
- GST Average SNR [6]: 0.932
- GST Average SNR [7]: 1.16
- GST Average SNR [8]: -0.483
- GST Average SNR [9]: 0.717
- GST Average SNR [10]: 0.066
- GST Average SNR [11]: -1.4
- GST Average SNR [12]: 1.04
- GST Average SNR [13]: 1.21
B1: 3× Flag-3×MBT (designed binder)
chain: EEWSSSQPATGEKKECWSWESYLEEQKAITAPVSLFQDSQAVTHNKNGFKLGMKLEGIDPQHPSMYFILTVAEVCGYRLRLHFDGYSECHDFWVNANSPDIHPAGWFEKTGHKLQPPKGYKEEEFSWSQYLRSTRAQAAPKHLFVSQSHSPPPLGFQVGMKLEAVDRMNPSLVCVASVTDVVDSRFLVHFDNWDDTYDYWCDPSSPYIHPVGWCQKQGKPLTPPQDYPDPDNFCWEKYLEETGASAVPTWAFKVRPPHSFLVNMKLEAVDRRNPALIRVASVEDVEDHRIKIHFDGWSHGYDFWIDADHPDIHPAGWCSKTGHPLQPPLGPREPSSASPGG
notes: also called Flag-tagged 3×MBT; 3xFlag-3xMBT; not shown: made by PreScission cleavage of GST-3× Flag-3×MBT
